Test results reported in publication PMC8373112.

Tested on: RqcH-HTF wild-type (Bacillus subtilis)
Experiment: EMSA
Conditions: native tRNA modifications, deacylated; EMSA: HEPES:Polymix buffer, 5 mM Mg2+, 0.1 uM tRNA, 1 uM mRNA(MVF) competitor, 37 C 5 min, gel at 4 C; pull-down: HEPES:Polymix pH 7.5, 1 mM DTT, 5 mM MgOAc …

Row | Substance | K half
1 | tRNAAla | 190 nM
2 | tRNALys | 310 nM
3 | tRNAVal | 390 nM
